What was measured:
[1] = target: ADAM9 on human tumour cells (LS174T, HepG2, Calu-3, Colo205) (human) (UniProt Q13443); experiment: flow cytometry on HepG2 cells, 250 nM, negative control
[2] = target: ADAM9 on human tumour cells (LS174T, HepG2, Calu-3, Colo205) (human) (UniProt Q13443); experiment: flow cytometry on LS174T cells, 250 nM, negative control
[3] = target: ADAM9 on human tumour cells (LS174T, HepG2, Calu-3, Colo205) (human) (UniProt Q13443); experiment: flow cytometry on HepG2 cells, 1000 nM, negative control
[4] = target: ADAM9 on human tumour cells (LS174T, HepG2, Calu-3, Colo205) (human) (UniProt Q13443); experiment: flow cytometry on HepG2 cells, 62.5 nM, negative control
[5] = target: ADAM9 on human tumour cells (LS174T, HepG2, Calu-3, Colo205) (human) (UniProt Q13443); experiment: flow cytometry on LS174T cells, 1000 nM, negative control
[6] = target: ADAM9 on human tumour cells (LS174T, HepG2, Calu-3, Colo205) (human) (UniProt Q13443); experiment: flow cytometry on LS174T cells, 62.5 nM, negative control
[7] = target: ADAM9 on human tumour cells (LS174T, HepG2, Calu-3, Colo205) (human) (UniProt Q13443); experiment: flow cytometry on HepG2 cells, 15.625 nM, negative control
[8] = target: ADAM9 on human tumour cells (LS174T, HepG2, Calu-3, Colo205) (human) (UniProt Q13443); experiment: flow cytometry on LS174T cells, 15.625 nM, negative control
[9] = target: ADAM9 on human tumour cells (LS174T, HepG2, Calu-3, Colo205) (human) (UniProt Q13443); experiment: flow cytometry on HepG2 cells, 0.000238 nM, negative control
[10] = target: ADAM9 on human tumour cells (LS174T, HepG2, Calu-3, Colo205) (human) (UniProt Q13443); experiment: flow cytometry on HepG2 cells, 0.000954 nM, negative control
[11] = target: ADAM9 on human tumour cells (LS174T, HepG2, Calu-3, Colo205) (human) (UniProt Q13443); experiment: flow cytometry on HepG2 cells, 0.003815 nM, negative control
[12] = target: ADAM9 on human tumour cells (LS174T, HepG2, Calu-3, Colo205) (human) (UniProt Q13443); experiment: flow cytometry on HepG2 cells, 0.015259 nM, negative control
[13] = target: ADAM9 on human tumour cells (LS174T, HepG2, Calu-3, Colo205) (human) (UniProt Q13443); experiment: flow cytometry on HepG2 cells, 0.061035 nM, negative control
[14] = target: ADAM9 on human tumour cells (LS174T, HepG2, Calu-3, Colo205) (human) (UniProt Q13443); experiment: flow cytometry on HepG2 cells, 0.244141 nM, negative control
[15] = target: ADAM9 on human tumour cells (LS174T, HepG2, Calu-3, Colo205) (human) (UniProt Q13443); experiment: flow cytometry on HepG2 cells, 0.976563 nM, negative control
[16] = target: ADAM9 on human tumour cells (LS174T, HepG2, Calu-3, Colo205) (human) (UniProt Q13443); experiment: flow cytometry on HepG2 cells, 3.906250 nM, negative control
[17] = target: ADAM9 on human tumour cells (LS174T, HepG2, Calu-3, Colo205) (human) (UniProt Q13443); experiment: flow cytometry on LS174T cells, 0.000954 nM, negative control
[18] = target: ADAM9 on human tumour cells (LS174T, HepG2, Calu-3, Colo205) (human) (UniProt Q13443); experiment: flow cytometry on LS174T cells, 0.003815 nM, negative control
[19] = target: ADAM9 on human tumour cells (LS174T, HepG2, Calu-3, Colo205) (human) (UniProt Q13443); experiment: flow cytometry on LS174T cells, 0.015259 nM, negative control
[20] = target: ADAM9 on human tumour cells (LS174T, HepG2, Calu-3, Colo205) (human) (UniProt Q13443); experiment: flow cytometry on LS174T cells, 0.061035 nM, negative control
[21] = target: ADAM9 on human tumour cells (LS174T, HepG2, Calu-3, Colo205) (human) (UniProt Q13443); experiment: flow cytometry on LS174T cells, 0.244141 nM, negative control
[22] = target: ADAM9 on human tumour cells (LS174T, HepG2, Calu-3, Colo205) (human) (UniProt Q13443); experiment: flow cytometry on LS174T cells, 0.976563 nM, negative control
[23] = target: ADAM9 on human tumour cells (LS174T, HepG2, Calu-3, Colo205) (human) (UniProt Q13443); experiment: flow cytometry on LS174T cells, 3.906250 nM, negative control
[24] = target: ADAM9 on human tumour cells (LS174T, HepG2, Calu-3, Colo205) (human) (UniProt Q13443); experiment: cell-based or functional assay
[25] = target: ADAM9 on human tumour cells (LS174T, HepG2, Calu-3, Colo205) (human) (UniProt Q13443); experiment: flow cytometry on LS174T cells, 250 nM
[26] = target: ADAM9 on human tumour cells (LS174T, HepG2, Calu-3, Colo205) (human) (UniProt Q13443); experiment: flow cytometry on LS174T cells, 1000 nM
[27] = target: ADAM9 on human tumour cells (LS174T, HepG2, Calu-3, Colo205) (human) (UniProt Q13443); experiment: flow cytometry on LS174T cells, 62.5 nM
[28] = target: ADAM9 on human tumour cells (LS174T, HepG2, Calu-3, Colo205) (human) (UniProt Q13443); experiment: flow cytometry on LS174T cells, 15.625 nM
[29] = target: ADAM9 on human tumour cells (LS174T, HepG2, Calu-3, Colo205) (human) (UniProt Q13443); experiment: flow cytometry on LS174T cells, 0.000954 nM
[30] = target: ADAM9 on human tumour cells (LS174T, HepG2, Calu-3, Colo205) (human) (UniProt Q13443); experiment: flow cytometry on LS174T cells, 0.003815 nM
[31] = target: ADAM9 on human tumour cells (LS174T, HepG2, Calu-3, Colo205) (human) (UniProt Q13443); experiment: flow cytometry on LS174T cells, 0.015259 nM
[32] = target: ADAM9 on human tumour cells (LS174T, HepG2, Calu-3, Colo205) (human) (UniProt Q13443); experiment: flow cytometry on LS174T cells, 0.061035 nM
[33] = target: ADAM9 on human tumour cells (LS174T, HepG2, Calu-3, Colo205) (human) (UniProt Q13443); experiment: flow cytometry on LS174T cells, 0.244141 nM
[34] = target: ADAM9 on human tumour cells (LS174T, HepG2, Calu-3, Colo205) (human) (UniProt Q13443); experiment: flow cytometry on LS174T cells, 0.976563 nM
[35] = target: ADAM9 on human tumour cells (LS174T, HepG2, Calu-3, Colo205) (human) (UniProt Q13443); experiment: flow cytometry on LS174T cells, 3.906250 nM
[36] = target: ADAM9 on human tumour cells (LS174T, HepG2, Calu-3, Colo205) (human) (UniProt Q13443); experiment: flow cytometry on HepG2 cells, 250 nM
[37] = target: ADAM9 on human tumour cells (LS174T, HepG2, Calu-3, Colo205) (human) (UniProt Q13443); experiment: flow cytometry on HepG2 cells, 1000 nM
[38] = target: ADAM9 on human tumour cells (LS174T, HepG2, Calu-3, Colo205) (human) (UniProt Q13443); experiment: flow cytometry on HepG2 cells, 62.5 nM
[39] = target: ADAM9 on human tumour cells (LS174T, HepG2, Calu-3, Colo205) (human) (UniProt Q13443); experiment: flow cytometry on HepG2 cells, 15.625 nM
[40] = target: ADAM9 on human tumour cells (LS174T, HepG2, Calu-3, Colo205) (human) (UniProt Q13443); experiment: flow cytometry on HepG2 cells, 0.000238 nM
[41] = target: ADAM9 on human tumour cells (LS174T, HepG2, Calu-3, Colo205) (human) (UniProt Q13443); experiment: flow cytometry on HepG2 cells, 0.000954 nM
[42] = target: ADAM9 on human tumour cells (LS174T, HepG2, Calu-3, Colo205) (human) (UniProt Q13443); experiment: flow cytometry on HepG2 cells, 0.003815 nM
[43] = target: ADAM9 on human tumour cells (LS174T, HepG2, Calu-3, Colo205) (human) (UniProt Q13443); experiment: flow cytometry on HepG2 cells, 0.015259 nM
[44] = target: ADAM9 on human tumour cells (LS174T, HepG2, Calu-3, Colo205) (human) (UniProt Q13443); experiment: flow cytometry on HepG2 cells, 0.061035 nM
[45] = target: ADAM9 on human tumour cells (LS174T, HepG2, Calu-3, Colo205) (human) (UniProt Q13443); experiment: flow cytometry on HepG2 cells, 0.244141 nM
[46] = target: ADAM9 on human tumour cells (LS174T, HepG2, Calu-3, Colo205) (human) (UniProt Q13443); experiment: flow cytometry on HepG2 cells, 0.976563 nM
[47] = target: ADAM9 on human tumour cells (LS174T, HepG2, Calu-3, Colo205) (human) (UniProt Q13443); experiment: flow cytometry on HepG2 cells, 3.906250 nM

Chain of ADAM9 on human tumour cells (LS174T, HepG2, Calu-3, Colo205) (human) (Q13443 29-819): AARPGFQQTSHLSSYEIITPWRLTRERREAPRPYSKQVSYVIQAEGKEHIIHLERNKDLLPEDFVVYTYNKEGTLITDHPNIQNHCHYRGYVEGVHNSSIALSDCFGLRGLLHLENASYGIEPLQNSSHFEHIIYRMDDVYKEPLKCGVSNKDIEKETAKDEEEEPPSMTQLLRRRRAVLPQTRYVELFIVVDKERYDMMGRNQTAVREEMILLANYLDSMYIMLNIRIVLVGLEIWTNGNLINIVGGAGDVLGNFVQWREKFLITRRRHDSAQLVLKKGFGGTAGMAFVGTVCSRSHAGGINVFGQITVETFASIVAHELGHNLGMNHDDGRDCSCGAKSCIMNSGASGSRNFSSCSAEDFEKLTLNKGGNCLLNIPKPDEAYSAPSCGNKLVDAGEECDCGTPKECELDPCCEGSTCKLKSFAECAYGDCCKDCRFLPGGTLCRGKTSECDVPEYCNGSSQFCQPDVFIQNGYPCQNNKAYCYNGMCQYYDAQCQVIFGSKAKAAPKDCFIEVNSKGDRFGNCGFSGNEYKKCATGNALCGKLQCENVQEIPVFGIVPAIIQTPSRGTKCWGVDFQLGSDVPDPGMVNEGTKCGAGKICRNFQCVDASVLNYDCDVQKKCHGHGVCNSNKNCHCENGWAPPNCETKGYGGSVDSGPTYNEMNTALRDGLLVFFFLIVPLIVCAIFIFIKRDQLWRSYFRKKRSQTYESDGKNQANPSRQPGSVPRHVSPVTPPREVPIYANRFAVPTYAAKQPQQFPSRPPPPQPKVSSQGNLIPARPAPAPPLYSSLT

“anti-HIV human IgG antibody (iso-IgG1, produced by WuXi AppTec)” gave a Mean fluorescence intensity (MFI) [1] of 389, a Mean fluorescence intensity [2] of 269 and a Mean fluorescence intensity (MFI) [3] of 690. The Mean fluorescence intensity (MFI) [4] was 386, the Mean fluorescence intensity [5] was 368 and the Mean fluorescence intensity [6] was 229. For the same molecule, the Mean fluorescence intensity (MFI) [7] was 364, the Mean fluorescence intensity [8] was 209 and the Mean fluorescence intensity (MFI) [9] was 361. For the same molecule, the Mean fluorescence intensity (MFI) [10] was 365, the Mean fluorescence intensity (MFI) [11] was 349 and the Mean fluorescence intensity (MFI) [12] was 371. It also gave a Mean fluorescence intensity (MFI) [13] of 377, a Mean fluorescence intensity (MFI) [14] of 363 and a Mean fluorescence intensity (MFI) [15] of 360. The Mean fluorescence intensity (MFI) [16] was 361, the Mean fluorescence intensity [17] was 220 and the Mean fluorescence intensity [18] was 254. It also gave a Mean fluorescence intensity [19] of 213, a Mean fluorescence intensity [20] of 202 and a Mean fluorescence intensity [21] of 208. For the same molecule, the Mean fluorescence intensity [22] was 212 and the Mean fluorescence intensity [23] was 203.

B1: antibody-drug conjugate Ab16-X2 (antibody, human IgG1, kappa, V domains shown)
VH: QVQLQQPGTEVVKPGASVKLSCKASGFTFPLYWMHWVRQRPGRGLEWIGRIIPIFGHTKYNEKFKNKATLTADESSSTAYMELRSLTSDDSAVYYCARGGYYYYPREGFLDYWGQGTSVTVSS
VL: DIVMTQSPASLSVSPGERASISCRSSQSVDYSGDSYMNWYQQKPGQSPRLLIYAASDRESGVPDRFSGSGSGTDFTLKISRVEEEDAGTYYCQQSREDPFTFGQGTKVDIKR
modifications: linker-payload X2 (camptothecin type) conjugated after reduction with tris(2-carboxyethyl)phosphine; DAR p = 7.9; sites not given
B1 gave an IC50 (nM) of proliferation inhibition, Calu-3 cells, CellTiter-Glo, 6 days [24] of 3.83 nM, an IC50 (nM) of proliferation inhibition, Colo205 cells, CellTiter-Glo, 6 days [24] of 29.8 nM and an IC50 (nM) of proliferation inhibition, LS174T cells, CellTiter-Glo, 6 days [24] of 8.97 nM. The Mean fluorescence intensity [25] was 2130, the Mean fluorescence intensity [26] was 1130 and the Mean fluorescence intensity [27] was 2160. For the same molecule, the Mean fluorescence intensity [28] was 2400, the Mean fluorescence intensity [29] was 223 and the Mean fluorescence intensity [30] was 219. For the same molecule, the Mean fluorescence intensity [31] was 268, the Mean fluorescence intensity [32] was 447 and the Mean fluorescence intensity [33] was 954. It also gave a Mean fluorescence intensity [34] of 1960 and a Mean fluorescence intensity [35] of 2380.

B2: antibody-drug conjugate Ab16-X1 (antibody, human IgG1, kappa, V domains shown)
VH: B1 VH
VL: B1 VL
modifications: linker-payload X1 (camptothecin type) conjugated after reduction with tris(2-carboxyethyl)phosphine; DAR p = 7.8; sites not given
For B2, the IC50 (nM) of proliferation inhibition, Calu-3 cells, CellTiter-Glo, 6 days [24] was 8.6 nM, the Mean fluorescence intensity (MFI) [36] was 16600 and the Mean fluorescence intensity (MFI) [37] was 17400. The Mean fluorescence intensity (MFI) [38] was 3290, the Mean fluorescence intensity (MFI) [39] was 2960 and the Mean fluorescence intensity (MFI) [40] was 370. For the same molecule, the Mean fluorescence intensity (MFI) [41] was 376, the Mean fluorescence intensity (MFI) [42] was 396 and the Mean fluorescence intensity (MFI) [43] was 451. The Mean fluorescence intensity (MFI) [44] was 623, the Mean fluorescence intensity (MFI) [45] was 1090 and the Mean fluorescence intensity (MFI) [46] was 1790. It also gave a Mean fluorescence intensity (MFI) [47] of 1780.
